Test results as given in patent US20200317768A1 (published 2020).
Where a chain is given by its changes, count along the chain named. In names and notes the source's numbering stands.

T1: human FcγRIIb extracellular domain, C-terminal His-tag (human, UniProt P31994 43-217)
T1 construct: also called FcgRIIb; not shown: His-tag added to the C-terminus
T1 sequence: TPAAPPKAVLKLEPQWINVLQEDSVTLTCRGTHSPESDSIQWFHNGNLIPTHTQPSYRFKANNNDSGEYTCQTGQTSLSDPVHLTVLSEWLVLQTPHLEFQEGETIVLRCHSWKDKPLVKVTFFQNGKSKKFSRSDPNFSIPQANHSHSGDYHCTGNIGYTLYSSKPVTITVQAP

T2: cynomolgus monkey FcγRIIa3 extracellular domain, C-terminal His-tag (cynomolgus monkey)
T2 construct: also called cyno FcγRIIa3; FcgRIIa3
T2 chain: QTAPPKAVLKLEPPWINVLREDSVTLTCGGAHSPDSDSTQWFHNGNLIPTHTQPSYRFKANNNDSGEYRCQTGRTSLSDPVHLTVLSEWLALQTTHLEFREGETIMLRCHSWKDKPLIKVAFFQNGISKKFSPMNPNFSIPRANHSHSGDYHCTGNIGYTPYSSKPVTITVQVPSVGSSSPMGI

T3: cynomolgus monkey FcγRIIa1 extracellular domain, C-terminal His-tag (cynomolgus monkey)
T3 construct: also called cyno FcγRIIa1; FcgRIIa1
T3 chain: T2 chain with T95P, A121T, S128A, P133H, N135D

T4: cynomolgus monkey FcγRIIa2 extracellular domain, C-terminal His-tag (cynomolgus monkey)
T4 construct: also called cyno FcγRIIa2; FcgRIIa2
T4 chain: T2 chain with I127K, K130N, P133H, R142Q

T5: human FcγRIIb extracellular domain, C-terminal His-tag (human, UniProt P31994 43-217)
T5 construct: also called FcgRIIb (human)
T5 sequence: T1 sequence

T6: human FcγRIIaR extracellular domain, C-terminal His-tag (human, UniProt P12318 34-217)
T6 construct: also called human FcγRIIa (type R); FcgRIIaR
T6 chain: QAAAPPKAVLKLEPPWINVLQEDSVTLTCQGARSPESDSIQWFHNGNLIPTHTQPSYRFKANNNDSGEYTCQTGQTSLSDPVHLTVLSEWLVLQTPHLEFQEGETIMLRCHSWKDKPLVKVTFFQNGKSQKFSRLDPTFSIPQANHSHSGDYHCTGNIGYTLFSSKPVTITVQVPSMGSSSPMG

T7: cynomolgus monkey FcγRIIb extracellular domain, C-terminal His-tag (cynomolgus monkey)
T7 construct: also called cyno FcγRIIb; cynoFcγRIIb
T7 chain: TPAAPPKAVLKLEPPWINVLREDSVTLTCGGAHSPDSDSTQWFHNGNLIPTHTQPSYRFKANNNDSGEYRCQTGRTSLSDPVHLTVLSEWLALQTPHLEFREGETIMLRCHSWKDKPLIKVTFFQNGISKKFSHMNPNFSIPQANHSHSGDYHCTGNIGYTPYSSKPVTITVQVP

B1: MS1032LO06-SG1 (M103205H795-SG1/M103202L889-SK1) (antibody, human IgG1, kappa)
heavy: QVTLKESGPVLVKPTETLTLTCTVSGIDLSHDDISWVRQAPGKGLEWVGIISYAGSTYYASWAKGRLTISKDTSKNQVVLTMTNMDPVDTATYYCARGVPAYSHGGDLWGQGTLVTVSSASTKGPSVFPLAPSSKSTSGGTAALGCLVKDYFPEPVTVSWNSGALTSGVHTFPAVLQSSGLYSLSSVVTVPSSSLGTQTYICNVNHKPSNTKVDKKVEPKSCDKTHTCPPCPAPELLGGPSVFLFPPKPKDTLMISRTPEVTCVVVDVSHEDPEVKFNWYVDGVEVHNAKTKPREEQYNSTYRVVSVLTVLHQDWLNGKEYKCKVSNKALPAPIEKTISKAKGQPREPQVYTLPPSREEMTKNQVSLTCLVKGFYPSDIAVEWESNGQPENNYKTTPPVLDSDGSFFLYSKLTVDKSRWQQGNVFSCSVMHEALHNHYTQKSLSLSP
light: DIVMTQSPATLSLSPGERATLSCTSSQSVYHANWLSWFQQKPGQPPKLLIYWASTLAYGVPSRFSGSGSGTDFTLTISSLQPEDAATYYCAGGYGGGRYAFGQGTKVEIKRTVAAPSVFIFPPSDEQLKSGTASVVCLLNNFYPREAKVQWKVDNALQSGNSQESVTEQDSKDSTYSLSSTLTLSKADYEKHKVYACEVTHQGLSSPVTKSFNRGEC
notes: Anti-latent myostatin antibody
B2: MS1032LO06-MY201 (M103205H795-MY201/M103202L889-SK1) (antibody, human IgG1, kappa)
heavy: QVTLKESGPVLVKPTETLTLTCTVSGIDLSHDDISWVRQAPGKGLEWVGIISYAGSTYYASWAKGRLTISKDTSKNQVVLTMTNMDPVDTATYYCARGVPAYSHGGDLWGQGTLVTVSSASTKGPSVFPLAPSSKSTSGGTAALGCLVKDYFPEPVTVSWNSGALTSGVHTFPAVLQSSGLYSLSSVVTVPSSSLGTQTYICNVNHKPSNTKVDKKVEPKSCDKTHTCPPCPAPELLNGPSVFLFPPKPKDTLMISRTPEVTCVVVDVSDEDPEVKFNWYVDGVEVHNAKTKPREEQYNSTYRVVSVLTVLHQDWLNGKEYKCKVSNKALPKPIEKTISKAKGQPREPQVYTLPPSREEMTKNQVSLTCLVKGFYPSDIAVEWESNGQPENNYKTTPPVLDSDGSFFLYSKLTVDKSRWQQGNVFSCSVMHEALHNHYTQKSLSLSP
light: B1 light
notes: CH MY201 = SG1 with G236N/H268D/A330K (EU numbering); also called MS103205H795-MY201
B3: MS1032LO06-MY351 (M103205H795-MY351/M103202L889-SK1) (antibody, human IgG1, kappa)
heavy: B2 heavy with Q313R, D415K
light: B1 light
notes: CH MY351 = SG1 with G236N/H268D/Q311R/A330K/D413K (EU numbering); also called MS103205H795-MY351
B4: MS1032LO06-MY352 (M103205H795-MY352/M103202L889-SK1) (antibody, human IgG1, kappa, name in EU numbering)
heavy: B2 heavy with Q313R, D415R
light: B1 light
notes: Printed substitutions: G236N/H268D/Q311R/A330K/D413R (EU numbering); also called MS103205H795-MY352
B5: MS1032LO06-PK55 (M103205H795-PK55/M103202L889-SK1) (antibody, human IgG1, kappa)
heavy: B2 heavy with Q313R, P345R
light: B1 light
notes: CH PK55 = SG1 with G236N/H268D/Q311R/A330K/P343R (EU numbering); also called MS103205H795-PK55
B6: MS1032LO06-PK56 (M103205H795-PK56/M103202L889-SK1) (antibody, human IgG1, kappa)
heavy: B2 heavy with Q313R, P345R, D415R
light: B1 light
notes: CH PK56 = SG1 with G236N/H268D/Q311R/A330K/P343R/D413R (EU numbering); also called MS103205H795-PK56
B7: MS1032LO06-PK57 (M103205H795-PK57/M103202L889-SK1) (antibody, human IgG1, kappa)
heavy: B2 heavy with Q313R, N386R, D415R
light: B1 light
notes: CH PK57 = SG1 with G236N/H268D/Q311R/A330K/N384R/D413R (EU numbering); also called MS103205H795-PK57
B8: MS_M103205H795-SG1/M103202L889-SK1 (antibody, human IgG1, kappa)
heavy: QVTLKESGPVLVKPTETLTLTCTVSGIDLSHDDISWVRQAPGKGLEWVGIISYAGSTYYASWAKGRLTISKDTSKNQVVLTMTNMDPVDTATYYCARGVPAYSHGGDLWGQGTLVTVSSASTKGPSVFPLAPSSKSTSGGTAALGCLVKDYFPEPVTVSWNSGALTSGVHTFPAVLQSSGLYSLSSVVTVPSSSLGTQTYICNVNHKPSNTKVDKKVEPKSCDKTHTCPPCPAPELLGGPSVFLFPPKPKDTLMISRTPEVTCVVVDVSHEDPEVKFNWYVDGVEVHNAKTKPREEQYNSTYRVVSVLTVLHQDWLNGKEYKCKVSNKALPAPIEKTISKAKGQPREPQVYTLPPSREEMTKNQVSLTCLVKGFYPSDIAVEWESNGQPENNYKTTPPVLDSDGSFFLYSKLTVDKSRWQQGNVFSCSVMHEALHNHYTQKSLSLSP
light: B1 light
notes: also called MS1032LO06-SG1
B9: M103205H795-MY009/M103202L889-SK1 (antibody, human IgG1, kappa)
heavy: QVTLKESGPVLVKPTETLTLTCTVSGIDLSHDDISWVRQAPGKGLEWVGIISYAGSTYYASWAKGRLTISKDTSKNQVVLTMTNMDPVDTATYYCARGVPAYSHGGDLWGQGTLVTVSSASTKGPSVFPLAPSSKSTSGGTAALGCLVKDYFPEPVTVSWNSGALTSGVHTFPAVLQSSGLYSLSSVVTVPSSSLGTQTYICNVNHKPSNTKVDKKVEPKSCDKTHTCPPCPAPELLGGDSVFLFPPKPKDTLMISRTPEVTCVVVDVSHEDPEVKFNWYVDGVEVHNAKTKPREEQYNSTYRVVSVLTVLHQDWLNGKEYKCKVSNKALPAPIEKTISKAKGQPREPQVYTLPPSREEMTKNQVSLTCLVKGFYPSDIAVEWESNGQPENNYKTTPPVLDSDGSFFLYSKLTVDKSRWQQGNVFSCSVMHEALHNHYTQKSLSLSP
light: B1 light
notes: CH MY009 = SG1 with P238D (EU numbering); also called MS1032LO06-MY009

What was measured:
[1] = target: T1, human FcγRIIb extracellular domain, …; test: SPR (BIACORE), antibody captured, soluble FcgR as analyte, 25C
Description: (§1) The kinetic analysis of interactions between these antibodies and FcγR was carried out using BIACORE® T200 or BIACORE® 4000 (GE Healthcare). HBS-EP+ (GE Healthcare) was used as the running buffer, and the measurement temperature was set to 25° C. A chip produced by immobilizing Protein A. Protein A/G or mouse anti-human IgG kappa light chain (BD Biosciences) onto a Series S Sensor Chip CM4 or CM5 (GE Healthcare) by the amine-coupling method was used. […] After the measurement, the antibody captured on the chip was washed off by allowing reaction with 10 mM glycine-HCl, pH1.5 and 25 mM NaOH so that the chip was regenerated and used repeatedly. The sensorgrams obtained as measurement results were analyzed by the 1:1 Langmuir binding model using the BIACORE® Evaluation Software to calculate the binding rate constant ka (L/mol/s) and dissociation rate constant kd (l/s), and the dissociation constant KD (mol/L) was calculated from these values. […] Regarding such interactions, KD values were calculated using the following 1:1 binding model described in BIACORE® T100 Software Handbook BR1006-48 Edition AE.
(§2) The behavior of interacting molecules according to the 1:1 binding model on BIACORE® can be described by Equation 1: Req=C·R max/(KD+C)+RI, wherein, Req is a plot of steady-state binding levels to analyte concentration. C is concentration, RI is bulk refractive index contribution in the sample, and Rmax is analyte binding capacity of the surface. When this equation is rearranged, KD can be expressed as Equation 2: KD=C·Rmax/(Req−RI)−C. KD can be calculated by substituting the values of Rmax, RI, and C into Equation 1 or Equation 2. From the current measurement conditions, RI=0, C=2 μmol/L can be used.

[2] = target: T8, cynomolgus monkey FcγRIIIaS extracellular domain, C-terminal His-tag (cynomolgus monkey, UniProt A3RFZ7 21-206 (rhesus entry)); test: as above
T8 construct: also called cyno FcγRIIIaS; FcgRIIIaS; not shown: His-tag added to the C-terminus
T8 sequence (A3RFZ7 21-206): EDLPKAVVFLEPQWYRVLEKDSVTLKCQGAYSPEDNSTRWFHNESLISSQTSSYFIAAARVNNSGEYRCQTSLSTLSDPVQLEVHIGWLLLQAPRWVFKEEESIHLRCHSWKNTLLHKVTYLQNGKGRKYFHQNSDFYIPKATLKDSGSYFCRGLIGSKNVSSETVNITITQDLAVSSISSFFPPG
Description: as §1, §2

[3] = target: T2, cynomolgus monkey FcγRIIa3 …; test: SPR (BIACORE) 25C, antibody captured, FcgR as analyte
Description: as §1

[4] = target: T3, cynomolgus monkey FcγRIIa1 …; test: as above
Description: as §1

[5] = target: T4, cynomolgus monkey FcγRIIa2 …; test: as above
Description: as §1

[6] = target: T5, human FcγRIIb extracellular domain, …; test: as above
Description: as §1

[7] = target: T6, human FcγRIIaR extracellular domain, …; test: as above
Description: as §1

[8] = target: T7, cynomolgus monkey FcγRIIb extracellular …; test: as above
Description: as §1

[9] = target: T2, cynomolgus monkey FcγRIIa3 …; test: SPR; KD of SG1 / KD of variant;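 note: relative to parent M103205H795-SG1 carrying the SG1 human heavy chain constant region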
Description: as §1

Binder | Kd [1] [µM] | Kd [2] [µM] | further results
B1 | 4.7 | 0.28 | –
B2 | 0.85 | 3.7 | –
B3 | 0.97 | 4.1 | –
B4 | 1 | 4 | –
B5 | 0.76 | 3.3 | –
B6 | 1 | 4.4 | –
B7 | 1.2 | 4.3 | –
B8 | – | – | Kd [3]: 15 µM; Kd [4]: 4.2 µM; Kd [5]: 5.2 µM; Kd [6]: 4.7 µM; Kd [7]: 1.4 µM; Kd [8]: 1.7 µM; KD fold (SG1 = 1) [9]: 1 fold
B9 | – | – | Kd [3]: 31 µM; Kd [4]: 25 µM; Kd [5]: 26 µM; Kd [6]: 1.4 µM; Kd [7]: 20 µM; Kd [8]: 4.9 µM; KD fold (SG1 = 1) [9]: 0.5 fold
